Sequences and labels used below:
T1: NF-YC9-GFP, recombinant (Arabidopsis thaliana, UniProt Q8L4B2 1-231)
T1 chain: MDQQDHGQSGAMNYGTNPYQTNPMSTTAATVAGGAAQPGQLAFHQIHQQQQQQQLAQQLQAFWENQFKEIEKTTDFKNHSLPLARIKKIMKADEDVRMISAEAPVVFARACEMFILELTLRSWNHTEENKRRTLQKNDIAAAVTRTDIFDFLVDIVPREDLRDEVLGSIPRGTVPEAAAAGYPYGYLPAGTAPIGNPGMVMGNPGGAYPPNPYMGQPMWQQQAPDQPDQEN

T2: mCherry-CO (CONSTANS), recombinant (Arabidopsis thaliana, UniProt Q39057 1-373)
T2 construct: CONSTANS (CO), Arabidopsis thaliana; No tag cleavage step is described; also called SUMO-mCherry-CO; source: E. coli Rosetta pLysS, purified (HisTrap; size exclusion when necessary); not shown: mCherry, N-terminal, kept
T2 sequence (looked up): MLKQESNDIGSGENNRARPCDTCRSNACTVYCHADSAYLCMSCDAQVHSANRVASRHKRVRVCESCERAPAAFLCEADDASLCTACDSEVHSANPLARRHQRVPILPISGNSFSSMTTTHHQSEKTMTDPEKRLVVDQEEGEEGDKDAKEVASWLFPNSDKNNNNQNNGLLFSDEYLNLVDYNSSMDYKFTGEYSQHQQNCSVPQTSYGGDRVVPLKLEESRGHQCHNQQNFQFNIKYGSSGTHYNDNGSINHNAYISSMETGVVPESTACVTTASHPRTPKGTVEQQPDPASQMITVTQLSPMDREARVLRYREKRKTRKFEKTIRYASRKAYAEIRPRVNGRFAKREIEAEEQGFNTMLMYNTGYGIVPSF

T3: CO/NF-YC9 mixture (mCherry-CO with NF-YC9-GFP), immobilised together (Arabidopsis thaliana, UniProt Q39057 1-373; Q8L4B2 1-231)
T3 chain 1: T2 sequence (looked up)
T3 chain 2: T1 chain

B1: mCherry-CO (CONSTANS), recombinant (natural protein)
chain: T2 sequence (looked up)
B2: NF-YC9-GFP, recombinant (natural protein, Arabidopsis thaliana, UniProt Q8L4B2 1-231, looked up)
chain: T1 chain
notes: Nuclear Factor-Y subunit C9 (NF-YC9), Arabidopsis thaliana; No tag cleavage step is described; also called MBP-NF-YC9-GFP; source: E. coli Rosetta pLysS, purified (HisTrap; size exclusion when necessary); not shown: GFP, C-terminal, kept
B3: NF-YB2, recombinant (natural protein, Arabidopsis thaliana, UniProt Q9FGJ3 1-190, looked up)
chain: MGDSDRDSGGGQNGNNQNGQSSLSPREQDRFLPIANVSRIMKKALPANAKISKDAKETMQECVSEFISFVTGEASDKCQKEKRKTINGDDLLWAMTTLGFEDYVEPLKVYLQRFREIEGERTGLGRPQTGGEVGEHQRDAVGDGGGFYGGGGGMQYHQHHQFLHQQNHMYGATGGGSDSGGGAASGRTRT
notes: Nuclear Factor-Y subunit B2 (NF-YB2), Arabidopsis thaliana; Unlabelled form, as used in SPR; also called His-NF-YB2; source: E. coli Rosetta pLysS, purified (HisTrap; size exclusion when necessary)
B4: NF-YB2, recombinant, labelled with Alexa Fluor 647 (natural protein, Arabidopsis thaliana, UniProt Q9FGJ3 1-190, looked up)
chain: B3 chain
modifications: Alexa Fluor 647 label (site not stated)
notes: Nuclear Factor-Y subunit B2 (NF-YB2), Arabidopsis thaliana; Same construct as m3, with the dye, as used for TIRF single-particle imaging; also called NF-YB2 (labeled by Alexa fluor 647); NF-YB2 with Alex647; source: E. coli Rosetta pLysS, purified (HisTrap; size exclusion when necessary)

In data set [1] the target is T1, NF-YC9-GFP, recombinant. Briefly: SPR; bivalent model.
Data set [2] deals with the molecule itself. Nature of the data set: SPR; bivalent model. In general terms: In SPR one partner is held on a chip, and binding of the other changes the refractive index at the surface.
Data set [3] concerns the target T1, NF-YC9-GFP, recombinant. Briefly: SPR; bivalent model, kd1.
Data set [4] concerns the molecule itself. Nature of the data set: SPR; bivalent model, kd1.
The target in data set [5] is T2, mCherry-CO (CONSTANS), recombinant. Nature of the data set: single-particle colocalisation by TIRF microscopy; 10 nM of each of two recombinant proteins mixed in 20 mM HEPES, 150 mM NaCl, pH 7.4 for 5 min, put on cover glass. The conditions noted are these: both partners purified.
Data set [6] deals with the molecule itself. Nature of the data set: SPR; Biacore T200, 25 °C; CO, NF-YC9 or a CO/NF-YC9 mixture (4:1) amine-coupled to a CM5 chip (1000-2000 RU); analytes NF-YB2, CO, NF-YC9 in twofold dilutions; HBST (10 mM HEPES, 150 mM NaCl, 3 mM EDTA, 0.05% Tween 20, pH 7.4); bivalent analyte model.
The target of data set [7] is B1. Briefly: SPR; bivalent model.
Data set [8] concerns the target T3, CO/NF-YC9 mixture (mCherry-CO with …). Nature of the data set: SPR; bivalent model.
Data set [9] concerns the target B2. Briefly: SPR; Biacore T200, 25 °C; CO, NF-YC9 or a CO/NF-YC9 mixture (4:1) amine-coupled to a CM5 chip (1000-2000 RU); analytes NF-YB2, CO, NF-YC9 in twofold dilutions; HBST (10 mM HEPES, 150 mM NaCl, 3 mM EDTA, 0.05% Tween 20, pH 7.4); bivalent analyte model. The note with it: both partners purified.
Data set [10] has as its target T2, mCherry-CO (CONSTANS), recombinant. The description is as above. The note with it: both partners purified.
Data set [11] concerns the target B1. Nature of the data set: SPR; bivalent model, kd1.
Data set [12] addresses T3, CO/NF-YC9 mixture (mCherry-CO with …). Nature of the data set: SPR; bivalent model, kd1.
For data set [13], the target named is B2. Briefly: single-particle colocalisation by TIRF microscopy; 10 nM of each of two recombinant proteins mixed in 20 mM HEPES, 150 mM NaCl, pH 7.4 for 5 min, put on cover glass. The note with it: both partners purified.

The source of these data is PMC11696179, “Molecular condensation of the CO/NF-YB/NF-YC/FT complex gates floral transition in Arabidopsis” (The EMBO Journal, 2024).

For the molecule B1, the Kd is 53.6 nM in data set [1] and 53.8 nM in data set [2]. Further, the values for the koff in data set [3] and in data set [4] were 0.00138 s⁻¹ and 0.0014 s⁻¹, respectively.
Regarding B2, the binding result in [5] and in data set [6] was “binds” each time. Further, the Kd in [2] was found to be 27.8 nM. Further, in data set [4], the koff (as a rule, a measure of how fast the partners let go of each other) stood at 0.0017 s⁻¹.
Consider B3, for which the Kd in [1] is 41.6 nM; in data set [7], 100 nM; in data set [2], 23.7 nM; in data set [8], 40.6 nM. Also, the binding result in data set [9] and in data set [10] was “binds” in each case. The koff worked out at 0.00173 s⁻¹ in data set [3], 0.00202 s⁻¹ in [11], 0.00137 s⁻¹ in [4] and 0.00139 s⁻¹ in data set [12].
As for B4, the binding result in [13] and in data set [5] was “binds” each time.
